# Data: paper PMC7939381, “MMP activation–associated aminopeptidase N reveals a bivalent 14-3-3 binding motif” (The Journal of Biological Chemistry, 2020)
# Primed or numbered codes have the meaning given here. Where no end group is shown, it is not given here. [ ]: non-standard residue; d: D form. The star is where a group is joined. FITC = O=C1OC2(c3ccc(O)cc3Oc3cc(O)ccc32)c2ccc(NC(=S)*)cc21; pT = C[C@@H](OP(=O)(O)O)[C@H](N)C(=O)O; pS = N[C@@H](COP(=O)(O)O)C(=O)O; PEG2″ = not defined here
# T1: 14-3-3γ, full length, N-terminally His6-tagged (human, UniProt P61981 1-247)
# T1 construct: 14-3-3 gamma, human, full length; source: E. coli BL21(DE3), purified (HisTrap, SEC)
# T1 sequence (looked up): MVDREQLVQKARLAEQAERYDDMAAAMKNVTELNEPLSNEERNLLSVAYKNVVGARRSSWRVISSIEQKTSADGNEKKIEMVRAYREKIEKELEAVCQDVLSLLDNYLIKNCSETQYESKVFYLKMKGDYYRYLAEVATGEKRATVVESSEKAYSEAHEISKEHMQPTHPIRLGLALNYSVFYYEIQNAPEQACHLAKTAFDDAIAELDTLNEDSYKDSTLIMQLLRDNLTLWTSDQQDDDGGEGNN
# T2: 14-3-3σ, full length, N-terminally His6-tagged (human, UniProt P31947 1-248)
# T2 construct: 14-3-3 sigma (stratifin), human, full length; no tag cleavage is described for the full-length proteins; also called stratifin; SFN; source: E. coli BL21(DE3), purified (HisTrap, SEC)
# T2 sequence (looked up): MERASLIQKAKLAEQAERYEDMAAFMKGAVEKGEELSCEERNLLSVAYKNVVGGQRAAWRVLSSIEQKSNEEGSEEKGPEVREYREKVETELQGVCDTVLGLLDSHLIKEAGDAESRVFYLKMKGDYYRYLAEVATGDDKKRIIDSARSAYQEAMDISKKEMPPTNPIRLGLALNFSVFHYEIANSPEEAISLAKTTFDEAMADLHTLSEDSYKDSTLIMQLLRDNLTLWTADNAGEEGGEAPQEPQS
# T3: 14-3-3ζ, full length, N-terminally His6-tagged (human, UniProt P63104 1-245)
# T3 construct: 14-3-3 zeta, human, full length; source: E. coli BL21(DE3), purified (HisTrap, SEC)
# T3 sequence (looked up): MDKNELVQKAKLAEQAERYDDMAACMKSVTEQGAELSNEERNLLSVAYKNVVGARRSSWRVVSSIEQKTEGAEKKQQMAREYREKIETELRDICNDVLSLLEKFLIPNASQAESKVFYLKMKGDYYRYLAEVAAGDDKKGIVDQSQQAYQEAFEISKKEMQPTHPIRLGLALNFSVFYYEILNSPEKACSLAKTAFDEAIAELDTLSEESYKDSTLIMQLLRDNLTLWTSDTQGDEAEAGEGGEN
# T4: 14-3-3θ, full length, N-terminally His6-tagged (human, UniProt P27348 1-245)
# T4 construct: 14-3-3 theta (printed as τ in the introduction, θ in the results), human, full length; also called 14-3-3τ; source: E. coli BL21(DE3), purified (HisTrap, SEC)
# T4 sequence (looked up): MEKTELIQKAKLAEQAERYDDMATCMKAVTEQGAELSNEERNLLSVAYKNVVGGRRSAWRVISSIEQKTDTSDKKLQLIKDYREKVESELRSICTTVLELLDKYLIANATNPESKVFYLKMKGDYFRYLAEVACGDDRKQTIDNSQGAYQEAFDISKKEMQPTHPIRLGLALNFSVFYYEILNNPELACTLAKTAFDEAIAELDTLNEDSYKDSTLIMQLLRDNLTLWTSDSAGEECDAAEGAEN
# T5: 14-3-3ε, full length, N-terminally His6-tagged (human, UniProt P62258 1-255)
# T5 construct: 14-3-3 epsilon, human, full length; source: E. coli BL21(DE3), purified (HisTrap, SEC)
# T5 sequence (looked up): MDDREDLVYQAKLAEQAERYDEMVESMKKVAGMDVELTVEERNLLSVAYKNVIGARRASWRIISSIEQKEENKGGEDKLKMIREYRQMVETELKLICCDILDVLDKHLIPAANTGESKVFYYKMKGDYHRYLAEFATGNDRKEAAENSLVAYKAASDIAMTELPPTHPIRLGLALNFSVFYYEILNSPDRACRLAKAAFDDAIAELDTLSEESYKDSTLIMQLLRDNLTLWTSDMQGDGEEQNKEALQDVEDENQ
# T6: 14-3-3β/α, full length, N-terminally His6-tagged (human, UniProt P31946 1-246)
# T6 construct: 14-3-3 beta/alpha, human, full length; also called His6-14-3-3β/α; source: E. coli BL21(DE3), purified (HisTrap, SEC); also in E. coli cell lysate (pulldown); not shown: His6, N-terminal, kept
# T6 sequence (looked up): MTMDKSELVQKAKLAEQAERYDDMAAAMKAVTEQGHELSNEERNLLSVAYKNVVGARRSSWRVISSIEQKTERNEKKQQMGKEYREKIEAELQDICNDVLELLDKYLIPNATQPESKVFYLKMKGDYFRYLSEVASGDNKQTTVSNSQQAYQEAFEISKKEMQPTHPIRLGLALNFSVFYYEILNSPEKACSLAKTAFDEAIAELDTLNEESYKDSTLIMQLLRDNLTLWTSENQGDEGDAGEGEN
# B1: FITC-labeled peptide 1, APN 38–46 pSer43 (peptide)
# peptide: {FITC-PEG2″}-NKNAN[pS]SPV
# notes: aminopeptidase N (APN, CD13), human, residues 38-46; also called site 1; source: synthetic peptide (Fmoc SPPS, HPLC purified)
# B2: acetylated (label-free, unlabeled) peptide 1, APN 38–46 pSer43 (peptide)
# peptide: Ac-NKNAN[pS]SPV
# notes: aminopeptidase N (APN, CD13), human, residues 38-46; also called acetylated peptide 1; label-free peptide 1; source: synthetic peptide (Fmoc SPPS, HPLC purified)
# B3: acetylated (unlabeled) RAF1 peptide (peptide)
# peptide: Ac-RQRST[pS]TPN
# notes: source: synthetic peptide (Fmoc SPPS, HPLC purified)
# B4: 14-3-3σ ΔC (aa 1–231) (domain or fragment, human, UniProt P31947 1-231, looked up)
# chain: MERASLIQKAKLAEQAERYEDMAAFMKGAVEKGEELSCEERNLLSVAYKNVVGGQRAAWRVLSSIEQKSNEEGSEEKGPEVREYREKVETELQGVCDTVLGLLDSHLIKEAGDAESRVFYLKMKGDYYRYLAEVATGDDKKRIIDSARSAYQEAMDISKKEMPPTNPIRLGLALNFSVFHYEIANSPEEAISLAKTTFDEAMADLHTLSEDSYKDSTLIMQLLRDNLTLWT
# notes: 14-3-3 sigma (stratifin), human, C-terminally truncated, residues 1-231; One monomer per asymmetric unit; the biological dimer is generated by crystallographic symmetry; also called 14-3-3 ΔC aa 1–231; source: E. coli BL21(DE3), purified (HisTrap, TEV cleavage, reverse HisTrap, SEC); not shown: His6, N-terminal, cleaved
# B5: peptide 11, APN 36–73 pSer43 pThr63, as used in ITC and co-crystallisation (peptide, UniProt P15144 36-73, looked up)
# peptide: EKNKNAN[pS]SPVASTTPSASATTNPASA[pT]TLDQSKAWNR
# notes: aminopeptidase N (APN, CD13), human, residues 36-73; also called bis-phosphorylated peptide 11; source: synthetic peptide (Fmoc SPPS, HPLC purified)
# B6: peptide 1, APN 38–46 pSer43, as used in ITC (peptide)
# peptide: NKNAN[pS]SPV
# notes: aminopeptidase N (APN, CD13), human, residues 38-46; source: synthetic peptide (Fmoc SPPS, HPLC purified)
# B7: 14-3-3η, full length, N-terminally His6-tagged (natural protein, human, UniProt Q04917 1-246, looked up)
# chain: MGDREQLLQRARLAEQAERYDDMASAMKAVTELNEPLSNEDRNLLSVAYKNVVGARRSSWRVISSIEQKTMADGNEKKLEKVKAYREKIEKELETVCNDVLSLLDKFLIKNCNDFQYESKVFYLKMKGDYYRYLAEVASGEKKNSVVEASEAAYKEAFEISKEQMQPTHPIRLGLALNFSVFYYEIQNAPEQACLLAKQAFDDAIAELDTLNEDSYKDSTLIMQLLRDNLTLWTSDQQDEEAGEGN
# notes: 14-3-3 eta, human, full length; also called His6-14-3-3η; source: E. coli BL21(DE3), purified (HisTrap, SEC); also in E. coli cell lysate (pulldown); not shown: His6, N-terminal, kept
# Columns and labels:
# [1] = target: T1, 14-3-3γ, full length, N-terminally …; experiment: fluorescence polarisation; direct binding: dilution series of 14-3-3 protein added to FITC-labeled peptide (30 nM stock, 5 µl in 15 µl); 10 mM HEPES pH 7.4, 150 mM NaCl, 2 mM DTT, 0.01% Tween 20; 60 min at room temperature, read at 25 °C; four-parameter fit; conditions: both partners purified
# [2] = target: T2, 14-3-3σ, full length, N-terminally …; experiment: as above; conditions: both partners purified
# [3] = target: T3, 14-3-3ζ, full length, N-terminally …; experiment: as above; conditions: both partners purified
# [4] = target: B7; experiment: as above; conditions: both partners purified
# [5] = target: T4, 14-3-3θ, full length, N-terminally …; experiment: as above; conditions: both partners purified
# [6] = target: T5, 14-3-3ε, full length, N-terminally …; experiment: as above; conditions: both partners purified
# [7] = target: T6, 14-3-3β/α, full length, N-terminally …; experiment: as above; conditions: both partners purified
# [8] = target: T2, 14-3-3σ, full length, N-terminally …; experiment: fluorescence polarisation; competition: dilution series of acetylated peptide (starting concentration 4000 µM) added to a premixed complex of 14-3-3σ (3 µM) and FITC-labeled RAF1 tracer (30 nM); 10 mM HEPES pH 7.4, 150 mM NaCl, 2 mM DTT, 0.01% Tween 20; 25 °C; conditions: both partners purified
# [9] = target: the molecule itself; experiment: crystal structure; 14-3-3σ ΔC (12.5 g/l) mixed 1:2 with peptide 1; sitting drops, 100 mM HEPES pH 7.3, 0.19 M CaCl2, 5% glycerol, 28% PEG400, 4 °C; space group C222(1), 1.60 Å
# [10] = target: B4; experiment: crystal structure; 14-3-3σ ΔC co-crystallised with peptide 11; sitting drops, 100 mM HEPES pH 7.7, 0.19 M CaCl2, 5% glycerol, 27% PEG400; space group C222(1), 1.20 Å; also solved in P1; conditions: both partners purified
# [11] = target: B7; experiment: ITC; 14-3-3η (500 µM; 250 µM for peptide 11) titrated into peptide (50 µM; 12.5 µM for peptide 11), 18 injections; 50 mM HEPES pH 7.4, 250 mM NaCl, 20 mM MgCl2; 25 °C; conditions: both partners purified
# [12] = target: B6; experiment: as above; conditions: both partners purified
binder,measurement,setting,value
B1,binding result,[1],binds
same,Kd,[2],1.7 ± 0.1 µM
same,binding result,[3],binds
same,Kd,[4],0.32 ± 0.04 µM
same,binding result,[5],binds
same,binding result,[6],binds
"TTNPASATT (also: one phosphorylated Ser/Thr within Ser61–Thr64) [peptide 14, monophosphorylated APN 9-mer (noncanonical site of peptide 10)]",Kd,[7],> 40 µM
same,Kd,[4],> 40 µM
"NPASA[pT]TLD [peptide 15, monophosphorylated APN 9-mer pThr63 (site 2)]",Kd,[7],> 40 µM
same,Kd,[4],> 40 µM
"PASATTLDQ (also: one phosphorylated Ser/Thr within Ser61–Thr64) [peptide 16, monophosphorylated APN 9-mer (noncanonical site of peptide 12)]",Kd,[7],> 40 µM
same,Kd,[4],> 40 µM
B2,IC50,[8],18.8 ± 1.5 µM
B3,IC50,[8],13.4 ± 0.7 µM
B4,binding result,[9],binds
B5,binding result,[10],binds
B6,Kd,[11],2.18 µM
B7,stoichiometry N,[12],1.05
